molecular target: rpgr_mouse Rpgr (UniProt Q9R0X5)
Sequence (Q9R0X5 whole entry): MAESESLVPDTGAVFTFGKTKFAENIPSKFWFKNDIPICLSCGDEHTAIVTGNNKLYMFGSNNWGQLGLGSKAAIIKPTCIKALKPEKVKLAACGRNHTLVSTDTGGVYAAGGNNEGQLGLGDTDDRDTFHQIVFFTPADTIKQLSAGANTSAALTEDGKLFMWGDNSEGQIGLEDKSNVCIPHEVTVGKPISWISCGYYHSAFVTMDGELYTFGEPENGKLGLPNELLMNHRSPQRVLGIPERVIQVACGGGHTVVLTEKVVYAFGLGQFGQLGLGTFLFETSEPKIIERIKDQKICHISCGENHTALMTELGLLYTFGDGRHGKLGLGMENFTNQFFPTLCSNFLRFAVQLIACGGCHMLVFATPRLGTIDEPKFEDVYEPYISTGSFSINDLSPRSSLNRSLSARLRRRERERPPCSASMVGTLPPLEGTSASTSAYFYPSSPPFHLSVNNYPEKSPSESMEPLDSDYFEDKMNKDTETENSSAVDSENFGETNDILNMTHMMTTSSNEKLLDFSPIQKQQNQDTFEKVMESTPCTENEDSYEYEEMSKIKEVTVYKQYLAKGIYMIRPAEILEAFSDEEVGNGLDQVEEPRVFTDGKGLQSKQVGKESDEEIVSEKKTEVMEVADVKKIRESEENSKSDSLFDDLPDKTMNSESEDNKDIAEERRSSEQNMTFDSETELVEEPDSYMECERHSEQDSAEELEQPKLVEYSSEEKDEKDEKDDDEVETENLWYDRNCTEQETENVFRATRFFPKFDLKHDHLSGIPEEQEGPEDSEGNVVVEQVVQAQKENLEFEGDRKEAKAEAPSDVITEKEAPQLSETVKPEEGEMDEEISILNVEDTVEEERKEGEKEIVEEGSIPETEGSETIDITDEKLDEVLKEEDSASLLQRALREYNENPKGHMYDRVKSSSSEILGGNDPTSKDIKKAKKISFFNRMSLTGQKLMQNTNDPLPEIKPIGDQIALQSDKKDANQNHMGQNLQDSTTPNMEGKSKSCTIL

Chain of Protein fantom (Homo sapiens), Q68CZ1 A229T (Q68CZ1 whole entry A229T): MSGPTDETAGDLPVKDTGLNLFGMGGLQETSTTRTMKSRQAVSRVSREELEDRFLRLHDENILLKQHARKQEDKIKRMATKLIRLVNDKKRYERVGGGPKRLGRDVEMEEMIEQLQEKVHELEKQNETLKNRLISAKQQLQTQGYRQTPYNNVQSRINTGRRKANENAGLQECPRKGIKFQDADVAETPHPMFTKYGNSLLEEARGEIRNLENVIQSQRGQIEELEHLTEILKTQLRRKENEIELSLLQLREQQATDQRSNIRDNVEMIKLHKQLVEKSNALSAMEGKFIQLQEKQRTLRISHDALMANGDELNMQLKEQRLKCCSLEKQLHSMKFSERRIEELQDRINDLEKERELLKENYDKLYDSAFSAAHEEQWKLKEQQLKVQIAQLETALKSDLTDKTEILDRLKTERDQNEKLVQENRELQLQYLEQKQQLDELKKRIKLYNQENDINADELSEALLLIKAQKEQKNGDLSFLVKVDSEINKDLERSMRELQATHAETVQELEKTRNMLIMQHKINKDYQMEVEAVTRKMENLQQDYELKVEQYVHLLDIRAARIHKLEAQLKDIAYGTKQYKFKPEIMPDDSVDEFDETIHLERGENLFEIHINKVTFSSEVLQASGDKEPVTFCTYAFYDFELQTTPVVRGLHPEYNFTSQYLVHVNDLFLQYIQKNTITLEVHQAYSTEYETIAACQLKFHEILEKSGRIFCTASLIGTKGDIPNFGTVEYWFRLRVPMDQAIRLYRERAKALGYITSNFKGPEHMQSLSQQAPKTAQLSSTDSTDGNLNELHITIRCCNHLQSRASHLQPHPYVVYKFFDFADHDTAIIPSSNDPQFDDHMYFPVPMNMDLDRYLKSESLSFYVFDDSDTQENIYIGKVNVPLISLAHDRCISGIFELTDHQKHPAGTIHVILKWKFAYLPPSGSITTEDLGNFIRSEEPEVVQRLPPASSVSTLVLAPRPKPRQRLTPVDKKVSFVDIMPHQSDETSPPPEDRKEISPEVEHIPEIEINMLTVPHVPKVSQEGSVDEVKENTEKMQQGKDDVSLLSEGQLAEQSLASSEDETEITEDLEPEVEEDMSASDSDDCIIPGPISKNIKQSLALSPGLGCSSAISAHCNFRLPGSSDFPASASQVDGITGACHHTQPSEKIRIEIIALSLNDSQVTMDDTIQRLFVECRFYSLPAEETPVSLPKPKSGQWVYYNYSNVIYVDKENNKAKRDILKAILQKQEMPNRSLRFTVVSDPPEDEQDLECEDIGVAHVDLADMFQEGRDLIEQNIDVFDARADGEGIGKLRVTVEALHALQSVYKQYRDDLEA

Row | effect of a mutation on the interaction | Substance
1 | decreasing interaction strength | Protein fantom (Homo sapiens), Q68CZ1 A229T
2 | decreasing interaction strength | Protein fantom (Homo sapiens), Q68CZ1 A695P
3 | decreasing interaction strength | Protein fantom (Homo sapiens), Q68CZ1 T615P
4 | with no effect | Protein fantom (Homo sapiens), Q68CZ1 T677I

— IntAct's records for PubMed 19430481
